In publication PMC3493473:

Columns and labels:
[1] = target: full length ROP18 (ROP18-FL), recombinant (Toxoplasma gondii (type I RH strain))
[2] = target: T1, ROP18-kinase domain (ROP18-KD) (Toxoplasma gondii) (UniProt Q2PAY2)
T1 sequence: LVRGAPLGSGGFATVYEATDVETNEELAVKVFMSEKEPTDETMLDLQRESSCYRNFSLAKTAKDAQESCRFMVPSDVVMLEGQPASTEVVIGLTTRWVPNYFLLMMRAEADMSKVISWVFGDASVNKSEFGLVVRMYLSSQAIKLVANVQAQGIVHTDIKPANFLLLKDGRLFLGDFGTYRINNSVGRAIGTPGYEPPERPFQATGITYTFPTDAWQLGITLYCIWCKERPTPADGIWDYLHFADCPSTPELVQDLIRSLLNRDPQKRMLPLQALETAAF

recombinant ROP5 (rROP5) (from UniProt F2YGR7 25-549) (natural protein)
in vitro 32P kinase activity of ROP18-FL (25 ng) on immunoprecipitated Irgb6 with against without rROP5 (50 ng), fold increase (Figure 5F) [1]: 12 fold
in vitro 32P kinase activity of ROP18-KD (100 ng) on dMBP with against without rROP5 (200 ng), fold increase (Figure 5E) [2]: 12 fold
